Target: E. coli RNA polymerase holoenzyme (native) (E. coli) (UniProt P0A8V2)

## P2 Orf82 (Orf82 from Enterobacteria phage P2) (natural protein)
  IC50 for inhibition of rrnB P1 transcription, multiround in vitro transcription with E. coli RNAP (4 nM to 2,000 nM factor): 250 nM
